In PMC4780765, “Role of Interaction and Nucleoside Diphosphate Kinase B in Regulation of the Cystic Fibrosis Transmembrane Conductance Regulator Function by cAMP-Dependent Protein Kinase A” (PLoS ONE, 2016):

Key:
[1] = molecular target: T1, cystic fibrosis transmembrane conductance regulator (human (endogenous in 16HBE14o-), UniProt P13569 1-1480); assay: far-Western, overlay or dot blot; blot of a CFTR immunoprecipitate or of 16HBE14o- membrane proteins, 100 μg, overlaid with 1 μg recombinant NDPK-B without or with cAMP or 8-Br-cAMP (100 μM); probed for NDPK-B; conditions: one partner purified
T1 construct: CFTR, endogenous in the wild type human bronchial epithelial cell line 16HBE14o-; band at 175 kDa; also called CFTR; ABCC7; source: endogenous, 16HBE14o- cells (membrane fraction, lysates, immunoprecipitates)
T1 sequence (P13569 whole entry): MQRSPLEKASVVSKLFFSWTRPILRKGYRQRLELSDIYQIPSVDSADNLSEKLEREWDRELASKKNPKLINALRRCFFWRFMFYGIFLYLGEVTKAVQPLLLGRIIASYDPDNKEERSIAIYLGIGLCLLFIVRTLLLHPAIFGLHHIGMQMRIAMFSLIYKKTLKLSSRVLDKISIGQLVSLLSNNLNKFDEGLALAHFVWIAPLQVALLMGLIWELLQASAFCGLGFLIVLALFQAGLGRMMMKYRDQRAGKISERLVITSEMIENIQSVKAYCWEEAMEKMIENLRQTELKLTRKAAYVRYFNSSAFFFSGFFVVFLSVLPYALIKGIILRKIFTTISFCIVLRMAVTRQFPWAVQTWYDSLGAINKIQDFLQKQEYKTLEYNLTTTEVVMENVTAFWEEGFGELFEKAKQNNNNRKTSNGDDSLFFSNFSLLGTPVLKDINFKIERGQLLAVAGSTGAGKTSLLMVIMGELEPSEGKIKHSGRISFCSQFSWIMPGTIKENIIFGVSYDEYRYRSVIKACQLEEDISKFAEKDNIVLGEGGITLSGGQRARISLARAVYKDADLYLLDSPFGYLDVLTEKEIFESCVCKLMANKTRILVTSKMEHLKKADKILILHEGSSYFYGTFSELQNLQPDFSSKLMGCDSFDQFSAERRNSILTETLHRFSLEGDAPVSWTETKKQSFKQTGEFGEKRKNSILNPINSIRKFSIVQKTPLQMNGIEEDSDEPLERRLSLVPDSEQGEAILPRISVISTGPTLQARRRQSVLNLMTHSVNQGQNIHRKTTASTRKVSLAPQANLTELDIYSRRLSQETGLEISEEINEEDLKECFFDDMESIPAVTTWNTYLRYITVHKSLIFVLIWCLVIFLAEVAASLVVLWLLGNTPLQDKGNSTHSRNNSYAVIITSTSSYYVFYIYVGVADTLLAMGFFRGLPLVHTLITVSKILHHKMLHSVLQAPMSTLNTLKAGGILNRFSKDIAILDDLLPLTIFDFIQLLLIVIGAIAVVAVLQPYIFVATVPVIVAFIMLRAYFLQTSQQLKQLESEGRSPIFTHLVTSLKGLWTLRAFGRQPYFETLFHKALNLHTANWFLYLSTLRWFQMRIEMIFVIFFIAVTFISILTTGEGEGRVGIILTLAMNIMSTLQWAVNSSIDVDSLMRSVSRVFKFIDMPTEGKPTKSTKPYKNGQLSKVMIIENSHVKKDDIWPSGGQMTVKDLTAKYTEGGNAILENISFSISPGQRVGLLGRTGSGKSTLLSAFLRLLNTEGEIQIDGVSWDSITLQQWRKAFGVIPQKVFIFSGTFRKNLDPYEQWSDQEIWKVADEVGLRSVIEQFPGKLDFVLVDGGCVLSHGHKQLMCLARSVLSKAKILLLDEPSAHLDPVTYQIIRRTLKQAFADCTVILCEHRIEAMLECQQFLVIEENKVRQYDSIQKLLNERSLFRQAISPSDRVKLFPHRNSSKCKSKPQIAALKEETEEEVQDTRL

[2] = molecular target: T1, cystic fibrosis transmembrane …; assay: co-IP; CFTR or NDPK-B immunoprecipitates from 16HBE14o- membranes; cells untreated, treated with FSK (10 μM)/IBMX (100 μM) for 30 min, or with PKI (100 nM) or H-89 (1 μM) for 5 min before FSK/IBMX; conditions: partners not purified
[3] = molecular target: T1, cystic fibrosis transmembrane …; assay: far-Western, overlay or dot blot; blot of SDS-PAGE-separated 16HBE14o- membrane proteins (100 μg) overlaid with 16HBE14o- cytosol proteins (0.5 mg) in TBS with 5% milk, 60 min at room temperature, without or with cAMP, 8-Br-cAMP or dioctanoyl-cAMP (100 μM); probed for NDPK-B; conditions: partners not purified

fold increase of NDPK-B staining at 175 kDa with 8-Br-cAMP (100 μM) over overlay without cAMP [1] [fold]	fold increase of co-immunoprecipitation with FSK/IBMX over untreated cells [2] [fold]	fold increase of NDPK-B staining at 175 kDa with dioctanoyl cAMP (100 μM) over overlay without cAMP [3] [fold]	Binder
20			human recombinant nucleoside diphosphate kinase B isoform (natural protein, human recombinant nucleoside diphosphate kinase B (NDPK-B, NM23-H2); 16 kDa on the gel; also called NDPK-B; purified NDPK-B; source: recombinant, purified; prepared and provided by Professor Ioan Lascu) ANLERTFIAIKPDGVQRGLVGEIIKRFEQKGFRLVAMKFLRASEEHLKQHYIDLKDRPFFPGLVKYMNSGPVVAMVWEGLNVVKTGRVMLGETNPADSKPGTIRGDFCIQVGRNIIHGSDSVKSAEKEISLWFKPEELVDYKSCAHDWVYE
	3	20	nucleoside diphosphate kinase B (natural protein, human (endogenous in 16HBE14o-), UniProt P22392 1-152, looked up, nucleoside diphosphate kinase B (NDPK-B, NM23-H2), endogenous in the human bronchial epithelial cell line 16HBE14o-; also called NDPK-B; NDPK B; source: endogenous, 16HBE14o- cells (membrane and cytosol fractions, lysates)) MANLERTFIAIKPDGVQRGLVGEIIKRFEQKGFRLVAMKFLRASEEHLKQHYIDLKDRPFFPGLVKYMNSGPVVAMVWEGLNVVKTGRVMLGETNPADSKPGTIRGDFCIQVGRNIIHGSDSVKSAEKEISLWFKPEELVDYKSCAHDWVYE
